Data: paper PMC8617505

Tested on: CC1(C)S[C@@H]2[C@H](NC(=O)Cc3ccccc3)C(=O)N2[C@H]1C(=O)O
Assay: purified protein

Substance	Km [µM]	kcat/Km [M⁻¹ s⁻¹]
(Escherichia coli)	27 ± 4	9e+06 ± 2e+06
(Mycobacterium tuberculosis H37Rv)	72.9 ± 0.8	640000 ± 10000
